Assay results taken from patent publication US20230129812A1 (ACCELERON PHARMA, published 2023).
Like-named read-outs stand apart in the source and are kept apart here.

Tests used:
activin A [1] = biological target: T1, activin A (UniProt P08476 311-426); experiment: SPR (Biacore); receptor-Fc captured by anti-Fc antibody, ligand injected
T1 construct: also called ActA
T1 sequence (looked up): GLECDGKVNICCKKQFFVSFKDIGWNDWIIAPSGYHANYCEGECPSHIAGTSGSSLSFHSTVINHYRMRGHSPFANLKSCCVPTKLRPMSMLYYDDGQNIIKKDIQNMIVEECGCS
Experimental: (§1) A Biacore™-based binding assay was used to compare ligand binding selectivity of the ALK4-Fc:ActRIIB-Fc heterodimeric complex described above with that of ActRIIB-Fc and ALK4-Fc homodimer complexes. The ALK4-Fc:ActRIeB-Fc heterodimer, […], and ALK4-Fc homodimer were independently captured onto the system using an anti-Fc antibody. Ligands were injected and allowed to flow over the captured receptor protein. Results are summarized in Table 13 below, in which ligand off-rates (kd) most indicative of effective polypeptides are denoted in bold.

GDF11 [2] = biological target: T2, GDF11 (UniProt O95390 299-407); experiment: as above
T2 construct: also called BMP11
T2 sequence (looked up): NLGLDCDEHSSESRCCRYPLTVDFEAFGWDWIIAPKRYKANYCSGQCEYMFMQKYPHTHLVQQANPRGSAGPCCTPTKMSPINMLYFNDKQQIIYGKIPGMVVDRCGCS
Experimental: as §1

activin B = biological target: T3, activin B (UniProt P09529 293-407); experiment: as above
T3 sequence (looked up): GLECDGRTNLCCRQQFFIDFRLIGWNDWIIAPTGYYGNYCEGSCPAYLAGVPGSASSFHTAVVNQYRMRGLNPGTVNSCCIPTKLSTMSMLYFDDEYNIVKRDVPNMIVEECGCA
Experimental: as §1

activin A [3] = biological target: T1, activin A; experiment: as above; remark: listed apart in the source
Experimental: (§2) A Biacore™-based binding assay was used to compare ligand binding selectivity of the ActRIIA-Fc:ALK4-Fc heterodimeric complex described above with that of ActRIIA-Fc and ALK4-Fc homodimeric complexes. The ActRIIA-Fc:ALK4-Fc heterodimer, ActRIIA-Fc homodimer, and ALK4-Fc homodimer were independently captured onto the system using an anti-Fc antibody. Ligands were injected and allowed to flow over the captured receptor protein. Results are summarized in Table 14 below, in which ligand off-rates (kd) most indicative of effective ligand traps are denoted in bold.

GDF11 [4] = biological target: T2, GDF11; experiment: as above; remark: listed apart in the source
Experimental: as §2

activin AB = biological target: T4, activin AB (UniProt P08476 311-426; P09529 293-407); experiment: as above
T4 sequence (looked up) 1: T1 sequence (looked up)
T4 sequence (looked up) 2: T3 sequence (looked up)
Experimental: as §2

activin AC = biological target: T5, activin AC (UniProt P08476 311-426; P55103 237-352); experiment: as above
T5 sequence (looked up) 1: T1 sequence (looked up)
T5 sequence (looked up) 2: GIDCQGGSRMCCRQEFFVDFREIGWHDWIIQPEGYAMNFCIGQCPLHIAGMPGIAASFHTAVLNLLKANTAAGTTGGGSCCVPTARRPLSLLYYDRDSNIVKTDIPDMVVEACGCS
Experimental: as §2

BMP6 = biological target: T6, BMP6 (UniProt P22004 375-513, limits assumed); experiment: as above
T6 sequence (looked up): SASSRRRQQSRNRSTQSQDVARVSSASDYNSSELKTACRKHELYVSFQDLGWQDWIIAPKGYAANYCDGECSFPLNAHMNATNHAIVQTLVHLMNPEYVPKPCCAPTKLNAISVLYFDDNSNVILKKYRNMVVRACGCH
Experimental: as §2

BMP7 = biological target: T7, BMP7 (UniProt P18075 293-431); experiment: as above
T7 sequence (looked up): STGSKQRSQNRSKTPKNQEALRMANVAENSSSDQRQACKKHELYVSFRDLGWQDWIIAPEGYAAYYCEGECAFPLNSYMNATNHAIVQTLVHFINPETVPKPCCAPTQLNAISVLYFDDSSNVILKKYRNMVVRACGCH
Experimental: as §2

BMP10 = biological target: T8, BMP10 (UniProt O95393 317-424); experiment: as above
T8 sequence (looked up): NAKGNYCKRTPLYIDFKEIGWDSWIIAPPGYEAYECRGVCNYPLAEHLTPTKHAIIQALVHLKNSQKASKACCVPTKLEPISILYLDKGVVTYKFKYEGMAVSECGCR
Experimental: as §2

GDF11 [5] = biological target: T2, GDF11; experiment: SPR (Biacore); receptor-Fc captured by anti-Fc antibody, ligand injected; † Very low signal
Experimental: as §2

GDF11 [6] = biological target: T2, GDF11; experiment: as above; remark: listed apart in the source
Experimental: as §2

B1: ALK4-Fc homodimer (Fc fusion, not shown: a dimerising Fc or GST)
chain: SGPRGVQALLCACTSCLQANYTCETDGACMVSIFNLDGMEHHVRTCIPKVELVPAGKPFYCLSSEDLRNTHCCYTDYCNRIDLRVPSGHLKEPEHPSMWGPVE
With B1 the Kd (activin A [1]) was 20 nM, the koff (activin A [1]) was 0.012 s⁻¹ and the kon (activin A [1]) was 580000 M⁻¹ s⁻¹. The koff (GDF11 [2]) was 0.0048 s⁻¹, the kon (GDF11 [2]) was 5e+06 M⁻¹ s⁻¹ and the binding result (activin B) was “no binding”. It also gave a Kd (activin A [3]) of 20 nM, a koff (activin A [3]) of 0.012 s⁻¹ and a kon (activin A [3]) of 580000 M⁻¹ s⁻¹. The koff (GDF11 [4]) was 0.0048 s⁻¹, the kon (GDF11 [4]) was 5e+06 M⁻¹ s⁻¹ and the Kd (activin AB) was 2 nM. For the same binder, the koff (activin AB) was 0.0036 s⁻¹, the kon (activin AB) was 1.8e+06 M⁻¹ s⁻¹ and the binding result (activin AC) was “no binding”. B1: no binding (BMP6); no binding (BMP7); no binding (BMP10). It also gave a Kd (GDF11 [5]) of 0.97 nM and a Kd (GDF11 [6]) of 0.97 nM.
